Earlier results as cited in publication PMC8865373.
Read-outs that look alike come from different tables or passages of the source.

What was measured:
CBP TAZ2 TAZ2 [1] = target: CBP TAZ2 TAZ2 (UniProt P45481)
CBP TAZ2 TAZ2 [2] = target: CBP TAZ2 TAZ2 (UniProt P45481); remark: listed apart in the source

CBP TAZ2 TAZ2, sequence (P45481 1764-1855): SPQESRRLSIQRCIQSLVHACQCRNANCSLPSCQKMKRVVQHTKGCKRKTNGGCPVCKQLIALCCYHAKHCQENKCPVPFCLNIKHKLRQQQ
HPV E7, sequence (P03129 whole entry): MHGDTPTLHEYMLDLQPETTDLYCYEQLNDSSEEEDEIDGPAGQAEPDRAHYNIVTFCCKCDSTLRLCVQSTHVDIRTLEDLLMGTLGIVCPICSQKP
p53 AD1 AD1, sequence (P04637 13-37): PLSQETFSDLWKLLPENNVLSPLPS

Row | Substance | Kd (CBP TAZ2 TAZ2 [1]) [µM] | Kd (CBP TAZ2 TAZ2 [2]) [µM]
1 | HPV E7 (from UniProt P03129) | 0.022 | 
2 | p53 AD1 AD1 (from UniProt P04637) |  | 24
